Experimental data from patent US7947807B2, “Method for obtaining G protein-coupled receptor (GPCR) diffraction-quality crystals employing a monoclonal antibody that binds to the third intracellular loop (IL3)” (The Board of Trustees of the Leland Stanford Junior …, priority 2007, dated 2011).
“Also recorded” adds a separate entry of the source. Where two headings read alike, the source gives them in different places.

What was measured:
[1] = target: T1, β2AR (Homo sapiens, UniProt P07550); assay: Saturation and competition binding assays on purified β2AR reconstituted in phospholipid vesicles, with and without prebound Fab 5; settings: saturation binding, read-out: [3H]dihydroalprenolol Kd ± S.E.
T1 construct: hexahistidine (C); made in house; host or cells: Sf9 insect cells
Protocol: The effect of Fab binding on ligand binding properties and on agonist-induced three dimensional changes was determined.

[2] = target: T2, denatured β2AR (Homo sapiens, UniProt P07550); assay: Dot-blot binding of antibodies to SDS-denatured β2AR; settings: β2AR denatured with SDS, spotted on nitrocellulose
T2 construct: hexahistidine (C); made in house; host or cells: Sf9 insect cells
Protocol: (§1) FIGS. 2A and 2B. Binding characteristics of β2AR-specific antibodies. 2A, Dot-blots showing binding of nine β2AR specific antibodies to denatured receptor. Equal amounts of β2AR denatured with SDS and β-mercaptoethanol were spotted in triplicate on nitrocellulose strips. The strips were blocked with 5% non-fat dry milk in PBS-Tween (0.05% Tween-20) and then probed with […] of the indicated antibodies diluted in blocking buffer. Binding of the primary antibody to the denatured β2AR was detected with an Alexa-688 labeled anti-mouse secondary antibody. The top panel is a graphical representation of the average dot intensity from three independent experiments. The lower panel is a representative experiment. The binding of all 9 antibodies to denatured β2AR is reduced compared to M1 binding to the linear Flag epitope. 2B, Dose-response curves showing the effect on increasing amounts of antibodies 4-9 on the fluorescence of β2AR labeled at C265 with tetramethylrhodamine (β2AR-TMR). β2AR-TMR was diluted to 4 nM in 500 μL of buffer consisting of 0.1% dodecylmaltoside, 100 mM sodium chloride, and 20 mM HEPES buffer (pH 7.5). Data represent an n of 3.
Antibodies were screened for binding to a three dimensional epitope on the three-dimensional surface on the IC3 of the native β2AR, rather than a flexible linear epitope. […]

[3] = target: T3, β2AR-TMR (Homo sapiens, UniProt P07550); assay: Fluorescence of β2AR labeled at C265 with tetramethylrhodamine (β2AR-TMR), antibody dose-response; assay type: biochemical
T3 construct: made in house
Protocol: as §1, with “The binding of all 9 antibodies to denatured β2AR is reduced compared to M1 binding to the linear Flag epitope.” left out, “Data represent an n of 3.” left out
To select for antibodies that may interact with IC3, we examined the effect of antibody binding on the fluorescence of β2AR labeled at C265 (at the cytoplasmic end of TM6) with tetramethylrhodamine. […] As such, antibodies binding to IC3 may stabilize a specific conformation of TM5 relative to TM6 that would be detected by a change in tetramethylrhodamine fluorescence.

[4] = target: T4, flag tagged β2AR stably expressed in HEK-293 cells (Homo sapiens, UniProt P07550); assay: Immunofluorescence staining of HEK-293 cells stably expressing flag tagged β2AR, nonpermeabilized or permeabilized; assay type: cell-based; settings: compared with M1 antibody
T4 construct: expressed in transfected cells
Protocol: HEK-293 cells stably expressing a flag tagged version of the β2AR were cultured on coverslips and processed for immunocytochemistry. After fixation, with 4% paraformaldehyde, the cells were washed and blocked with 2.5% goat serum in PBS alone (nonpermeabilized) or with 0.5% NP-40 in PBS (permeabilized). The cells were incubated with the β2AR specific antibody indicated on the left side of the figure. After several washes, the β2AR monoclonal antibodies were detected with a Texas Red conjugated anti-mouse secondary antibody. […] The images shown are representative of at least 3 experiments. All images were acquired using an Axioplan 2 microscope (Carl Zeiss MicroImaging), fitted with a camera (RTE/CCD-1300-Y/HS; Roper Scientific) controlled using IPLab software (BD Bioscience).
The antibodies were characterized as binding the intracellular or extracellular surface of the receptor in immunofluorescence experiments with HEK-293 cells stably expressing an N-terminally FLAG-tagged version of the β2AR. Antibodies that recognize an intracellular epitope only stain permeabilized cells.

[5] = target: T5, β2AR (Homo sapiens, UniProt P07550, A271C/I135W); assay: Bimane fluorescence assay of agonist-induced conformational change (β2AR labeled with monobromobimane at H271C); assay type: biochemical; settings: 1 μM Fab5, 100 μM isoproterenol, 15 minutes
T5 construct: made in house
From the text: (§2) FIGS. 3A and 3B. […] The fragmented β2AR was visualized using an Alexa-680 labeled M1 antibody against the N-terminal Flag epitope. […] The loop is marked with MW indicators corresponding to N-terminal fragments containing the Flag epitope. Residues sensitive to trypsin digest are shown in red. 3B, The change in the bimane fluorescence of β2AR labeled with monobromobimane at H271C at the cytoplasmic end of TM6. Bimane fluorescence is quenched by W135 at the cytoplasmic end of TM3 upon agonist binding^9. […] Fluorescence intensity was corrected for background fluorescence from buffer and ligands in all experiments. The data are the mean±S.E. of two independent experiments performed in triplicate.
Purified receptor was reacted with 1:1 equivalent of monobromobimane (mBBr, Invitrogen) in buffer A (100 mM NaCl, 20 mM HEPES, pH 7.5, 0.1% dodecyl maltoside) and incubated overnight on ice in the dark. The fluorophore-labeled receptor was purified right before use by gel filtration on a desalting column equilibrated with buffer B. Fluorescence spectroscopy experiments were performed on a Spex FluoroMax-3 spectrofluorometer (Jobin Yvon Inc, NJ) with photon counting mode by using an excitation and emission bandpass of 4 nm. All experiments were performed at 25° C. For emission scans, excitation was set at 370 nm and emission was measured from 430-530 nm with an integration time of 1 s/nm. […]

[6] = target: T1, β2AR; assay: Limited tryptic digestion of purified β2AR with and without Fab 5, Western blot; assay type: biochemical; settings: preincubated with Fab 5; M1 anti-FLAG Western blot
From the text: as §2
Cleavage of purified β2AR with trypsin yielded two bands with molecular weights of approximately 27 and 29 kDa on a Western blot probed with the M1 anti-FLAG antibody (FIG. 3A). The sizes of these fragments indicate trypsin digestion at two of ten potential sites in IC3 (FIG. 3A).

[7] = target: T1, β2AR; assay: Coupling of purified β2AR to purified G protein; assay type: biochemical; settings: data not shown

| Molecule | Kd ([1]; β2AR without prebound Fab 5) [nM] | Kd ([1]; β2AR-Fab5 (prebound Fab 5)) [nM] | binding to denatured β2AR [2] | affinity for the β2AR (in words) ([3]; from β2AR-TMR dose-response curves, FIG. 2B) | fluorescence response of β2AR-TMR ([3]; β2AR labeled at C265 with tetramethylrhodamine) | immunostaining on binding to native receptor in fixed cells [4] | effect on agonist-induced bimane fluorescence change [5] | protection of IC3 from trypsin cleavage [6] | coupling of purified β2AR to purified G protein [7] |
| --- | --- | --- | --- | --- | --- | --- | --- | --- | --- |
| CCCc1ccccc1OCC(O)CNC(C)C (stereo not shown) [[^3H]dihydroalprenolol] | 1.02 ± 0.09 | 1.08 ± 0.05 |  |  |  |  |  |  |  |
| antibody 5: mouse monoclonal antibody binding a three dimensional epitope on the third intracellular loop of β2AR (protein) light: DIKMTQSPSSMYASLGERVTITCKASQDINSYLSWFQQKPGKSPKTLIYRANRLVDGVPSRFIGTGSGQDYSLTISSLDYEDMGIYYCLQYDEFPYTFGGGTKLEIKRADAAPTVSIFPPSSEQLTSGGASVVCFLNNFYPKDINVKWKIDGSERQNGVLNSWTDQDSKDSTYSMSSTLTLTKDEYERHNSYTCEATHKTSTSPIVKSFNRNEC heavy: EVQLQQSGAELARPGASVKLSCKASGYIFTDYYINWVRQRTGQGFEWIGEIYPGSGNIDYNERFKDKATLTADKSSSTAYMQLSSLTSEDSAVYFCVRGFGYWGQGTTLTVSSAKTTPPSVYPLAPGSAAQTNSMVTLGCLVKGYFPEPVTVTWNSGSLSSGVHTFPAVLQSDLYTLSSSVTVPSSTWPSETVTCNVAHPASSTKVDKKIVPRDCGC |  |  | weakest binding to denatured protein; also recorded: bound weakly | highest affinity; also recorded: relatively high affinity | largest fluorescence response; also recorded: significantly greater than the response to antibody 9 | comparable to M1 | not affected |  |  |
| Fab 5: Fab fragment of antibody 5 generated by papain cleavage; light chain SEQ ID NO: 1, heavy chain SEQ ID NO: 2 (antibody, mus musculis; UNSURE (0)...(0) Fab 5 Heavy chain; UNSURE (0)...(0) Fab5 light chain) heavy: EVQLQQSGAELARPGASVKLSCKASGYIFTDYYINWVRQRTGQGFEWIGEIYPGSGNIDYNERFKDKATLTADKSSSTAYMQLSSLTSEDSAVYFCVRGFGYWGQGTTLTVSSAKTTPPSVYPLAPGSAAQTNSMVTLGCLVKGYFPEPVTVTWNSGSLSSGVHTFPAVLQSDLYTLSSSVTVPSSTWPSETVTCNVAHPASSTKVDKKIVPRDCGC light: DIKMTQSPSSMYASLGERVTITCKASQDINSYLSWFQQKPGKSPKTLIYRANRLVDGVPSRFIGTGSGQDYSLTISSLDYEDMGIYYCLQYDEFPYTFGGGTKLEIKRADAAPTVSIFPPSSEQLTSGGASVVCFLNNFYPKDINVKWKIDGSERQNGVLNSWTDQDSKDSTYSMSSTLTLTKDEYERHNSYTCEATHKTSTSPIVKSFNRNEC |  |  |  |  |  |  | did not restrict the movement of transmembrane segments | the 27 kDa band disappears; also recorded: protects the N-terminal end of the loop | prevented coupling |
